From the supplement of paper PMC9170038

Test system: MS2 coat protein
Assay: apparent KD of MS2 coat protein; designed switch direction (-1 OFF switch, 1 ON switch): 1; higher = weaker reporter binding
Method in brief: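 Transcription of designed RNA switches on Illumina chips was done by stalled E. coli RNA polymerase. SNAP-549-labelled MS2 coat protein was then titrated in doubling steps from 0.7 or 1.5 nM to 3 µM, with steps of 0.8–1.5 h at the lowest and 10–20 min at the highest concentration. The per-design median over clusters of curve-fitted normalised fluorescence is reported as apparent KD.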

[1] = input ligand: microRNA oligo, concentration not stated
[2] = Eterna round: R95, input ligand: FMN 200 uM
[3] = Eterna round: R95, input ligand: microRNA oligo, concentration not stated
[4] = Eterna round: R95, input ligand: none

| Sequence | apparent KD of MS2 coat protein [1] [nM] | apparent KD of MS2 coat protein (input ligand: FMN 200 uM) [nM] | apparent KD of MS2 coat protein (input ligand: none) [nM] | apparent KD of MS2 coat protein [2] [nM] | apparent KD of MS2 coat protein [3] [nM] | apparent KD of MS2 coat protein [4] [nM] |
| --- | --- | --- | --- | --- | --- | --- |
| GUAGCAUACCGAGGAUAUUCAUAUAAUACAUGAGGAUCACCCAUGUUAUAUAGGCGAAAGCCUUGGGAGAAGGCGGAAUGCUAC [Xeonanis - 20 Mod65] (Eterna round: R96, puzzle: Same State NG 2) | 10.9 |  |  |  |  |  |
| AGCUAGUACCGAGGAUAUACGUACAUGAGGAUCACCCAUGUAUACAUGAUUUAAUGAGACUACAUGUAGAAGGCGGUACUAGCA [JL SSNG2 1.24] (Eterna round: R96, puzzle: Same State NG 2) | 39 | 12.4 | 53.7 |  |  |  |
| GUGCUCGUGUAAGGAUAUGCUUCCGUUUCGGCUGCAGAAGGUACUAUUAUACAUGAGGAUCACCCAUGUCUCUUUUGUUUGGUG [salish99_SSNG1_r04_909] (Eterna round: R96, puzzle: Same State NG 1) | 55.5 | 89.1 | 87.9 |  |  |  |
| GUUACAUGAGGAUCACCCAUGUAUGUGUGGGAGUAAGUGUCUUAGGAUAUCUGUUAUUUAAAUUAAGAGAAGGAAGAUUGUUGU [JMF's solution 8] (Eterna round: R96, puzzle: Same State NG 3) | 89.2 | 120 | 110 |  |  |  |
| AUUUUUAAUGCAGGAUAUGAUUAACAUGAGGAUCACCCAUGUGGUGUUGUGAGUAAGGAGAGUGAUCAGAAGGGCAUUUUUUUG [JMF's solution 90] (Eterna round: R96, puzzle: Same State NG 2) | 287 | 753 | 458 |  |  |  |
| GCUAGUAUUAUUGUCAACAUGAGGAUCACCCAUGUAUGUUGGCAGGAUAUCGUUUGCAAAGCAAACGAGAAGGGCUAAACUAGC [Mat - Same State NG 3 - JL Mod - D10] (Eterna round: R96, puzzle: Same State NG 3) | 105 | 71.9 | 185 |  |  |  |
| CCGUAGAUGGUAGGAUAUGGAGCCUUAUUGGCUCCAGAAGGAUCUAAAACAUGAGGAUCACCCAUGUCGGCGGUCAAUAGACCG [Eli NG1ss - 83] (Eterna round: R96, puzzle: Same State NG 1) | 65.1 | 67.2 | 107 |  |  |  |
| UUUGGGUGGCUGGAGGAUAUCCUGGUUGUUACAUGAGGAUCACCCAUGUGCCGCGCGGUUCGCGAGGAGAAGGCUGGCGGCCGUU (Eterna round: R96, puzzle: Same State 2) | 74.4 | 42.4 | 154 |  |  |  |
| UUGCGGGCUUGAGGAUAUUGAGUACAUAUGUUUAACAUGAGGAUCACCCAUGUGGGUUGCGGUAUCGAGAAGGUAGCUUCCUGC [salish99_SSNG2_r04_812] (Eterna round: R96, puzzle: Same State NG 2) | 83.6 | 76.3 | 79.1 |  |  |  |
| GAGUAGUUGGGAGGAUAUCCAUUGUUAUAGAAUGGAGAAGGUUUUAACAUGAGGAUCACCCAUGUAGGACUAUUCCUGUGUAUC [Parity 72 - Jieux - Same State NG 1] (Eterna round: R96, puzzle: Same State NG 1) | 12.2 | 13.5 | 16.8 |  |  |  |
| CCGGUAUAUGGAGGAUAUGGAGCCUUAUUGGCUCCAGAAGGCUAAUAACAUGAGGAUCACCCAUGUCCGGCGGUCAAUAGACCG [Eli NG1ss - 59] (Eterna round: R96, puzzle: Same State NG 1) | 113 | 66.7 | 336 |  |  |  |
| CAAACCGACACAGGAUAUGGAGCCGACCGGCACAUGAGGAUCACCCAUGUGCUACAGGUAUGUAGCUAGAAGGGUGAAGGUAUC [Eternabot solution 29] (Eterna round: R96, puzzle: Same State NG 2) | 56.9 | 48.5 | 118 |  |  |  |
| GAGGAUGAUUUACAGGAUAUAUAGAAGAUGACAUGAGGAUCACCCAUGUAAGAGAGAGGAGGGAGAUAGAAGGGUAAGGGAUGUG [JR_SS2_Sub41] (puzzle: Same State 2) |  |  |  | 35.4 | 27.8 | 49.6 |
| AAAGUGGGCUUAUUUGGAUUCUCGUCUGGACAUGAGGAUCACCCAUGUAGGCGCUUGGUCUGAGACUAAGCAGCCGA [Didiinso] (Eterna round: R96, puzzle: Sensor for hsa-mir-208a) | 28.5 | 113 | 75.3 |  |  |  |
| ACAUAGGGAACAGGAUAUGGGAAAAUUCCCUACAUGAGGAUCACCCAUGUCCGUAGGGACAACAUCCAGAAGGGUUACCACAUA [Eternabot solution 1] (Eterna round: R96, puzzle: Same State NG 2) | 549 | 211 | 656 |  |  |  |
| GAGCUCGUGUGAGGAUAUGCCGCCGUUUCGGCUGCAGAAGGUGCUACGUUACAUGAGGAUCACCCAUGUCUCUGUUGUUUCGUA [salish99_SSNG1_r04_960] (Eterna round: R96, puzzle: Same State NG 1) | 43.3 | 65.1 | 51.1 |  |  |  |

| Sequence | apparent KD of MS2 coat protein [1] [nM] | apparent KD of MS2 coat protein (input ligand: FMN 200 uM) [nM] | apparent KD of MS2 coat protein (input ligand: none) [nM] | apparent KD of MS2 coat protein [2] [nM] | apparent KD of MS2 coat protein [3] [nM] | apparent KD of MS2 coat protein [4] [nM] |
| --- | --- | --- | --- | --- | --- | --- |
| AGAAGACAUGAGGAUCACCCAUGUAUGAAAAGUACAGGAUAUCAUGAGCUAAGGUGCGCAUGAGAAGGGUGAAAAU [Aatle] (puzzle: Same State 1) |  |  |  | 549 | 166 | 70.3 |
| GGCGUCUGUCAAGGAUAUGCUACCGUUUCGGUAGCAGAAGGUGAUCACAUGAGGAUCACCCAUGUUUAGGCCAACAGGCCCGCC (Eterna round: R96, puzzle: Same State NG 1) | 222 | 1270 | 1410 |  |  |  |
| GGCAGGUGCAGGCUUGCUUGCACCUGGAAACAUGAGGAUCACCCAUGUUUGGGACAAGCUUUGCUCCUCGUCUUAUC [JL ViennaUCT Isusreraar mod 1] (puzzle: Sensor for hsa-mir-208a) |  |  |  | 179 | 43.1 | 232 |
| AGUCCAGCCUGAGCUGGACAAAAGCAUGUACAUGAGGAUCACCCAUGUUCAUGUACAAGCUUUUUGCUCGUCUUAAA [salish99_208a_r3_026] (puzzle: Sensor for hsa-mir-208a) |  |  |  | 483 | 14.6 | 533 |
| ACAAGCUUUUUAGGAGAGAAAGGUGGGAUACAUGAGGAUCACCCAUGUAUUGUUGUUAAUAGUGGACCUCGUCUUAU [JR_SHM208A_Sub083] (puzzle: Sensor for hsa-mir-208a) |  |  |  | 26.5 | 15.7 | 29.2 |
| GCGAAAGCGGUAGGAUAUCUAGGAUAUGGGAAGAGCUAAGCUUGGAAGUCACUUCACCCAGAAGGAGAGAAGGACACCGAAAGG [pwkr ssNG2 2FMN + F9.3] (Eterna round: R96, puzzle: Same State NG 2) | 302 | 2990 | 390 |  |  |  |
| AUAAAACAUGAGGAUCACCCAUGUCAACAAAGUCGAGGAUAUGGGCAUAUAAAAUAAGAACCAGAAGGCGAAUAAU [salish99_ss1_r3_026] (puzzle: Same State 1) |  |  |  | 32.2 | 265 | 230 |
| ACAUGAAAUUCAGGAUAUUUUGUACCUACAUGUGACAUGAGGAUCACCCAUGUGGUAAGUAUGAGAAAGAAGGGAAAGAUAUGU [Equivalence 10 - Jieux - Same State NG 2] (Eterna round: R96, puzzle: Same State NG 2) | 41.9 | 25.4 | 45.6 |  |  |  |
| GGCAGGUGCAGGCUUGCUUGCACCUGGAAACAUGAGGAUCACCCAUGUUUGGGACAAGCUUUGCUCUUCGUUUUGUC [JL ViennaUCT Isusreraar mod 4] (puzzle: Sensor for hsa-mir-208a) |  |  |  | 35.3 | 40.4 | 47 |
| GUGCUCGUGUGAGGAUAUGCUUCCGUUUCGGCUGCAGAAGGUACUAUUAUACAUGAGGAUCACCCAUGUCGCUUUUCUCCGGUG [salish99_SSNG1_r04_915] (Eterna round: R96, puzzle: Same State NG 1) | 21.8 |  |  |  |  |  |
| GAGCUCGUGUGAGGAUAUGCCGCCGUUUCGGCUGCAGAAGGUGCUACGUUACAUGAGGAUCACCCAUGUCUCUGUUGUUUCGUC [salish99_SSNG1_r04_961] (Eterna round: R96, puzzle: Same State NG 1) | 24.2 | 25.1 | 30 |  |  |  |
| GACGUGAAGGCAGGAUAUGGGAAAGGAAGUGUACCAGAAGGGCCUGGAAAACAUGAGGAUCACCCAUGUGAACCCACGUCAGUU [PowerStrip SSNG 1.26] (Eterna round: R96, puzzle: Same State NG 1) | 35.4 | 16 | 27.9 |  |  |  |
| GCGCGAAAGAGCGAGGAUAUGCGGCGUAUAACAUGAGGAUCACCCAUGUCCUUCGAAUCUUGUACGCAGAAGGCGCUACAGGCGC [Robot Leg] (puzzle: Same State 2) |  |  |  | 154 | 61 | 62.2 |
| UGUUGUAUUACAGGAUAUCUAGUAUUUUAAUUUAGAGAAGGGUAUUCACAUGAGGAUCACCCAUGUAUAUACGAGGAAGUUGUG [JMF's solution 43] (Eterna round: R96, puzzle: Same State NG 1) | 38.6 |  |  |  |  |  |
| CCGCGGGUAUCACAGGAUAUACUCAUAAUUACAUGAGGAUCACCCAUGUGACGGAAUUCCGGUGCGUAGAAGGGUGAUGGACCGC [Onquorbe] (puzzle: Same State 2) |  |  |  | 19.3 | 52.1 | 65.7 |
